Measurements as given in patent publication US20220289846A1 (ZYDUS LIFESCIENCES, published 2022).
Blank lines part the entries; values can stand above or below the binder they belong to.

Target: T1, Human PD-1 (AcroBiosystems) (human, UniProt Q15116 25-167, limits assumed)
T1 construct: Bought recombinant protein, amine-coupled to the SPR chip
Assay: SPR (ProteOn XPR), human PD-1 amine-coupled on GLC chip, antibody as analyte, Langmuir model
Procedure: Human PD-1 (AcroBiosystems) was directly immobilized onto the GLC Chip (ProteOn) using amine-coupling method to obtain a ligand immobilization level of about 500 RU. 10 mM Phosphate Buffered Saline (PBS) (10mM phosphate buffer, pH 7.4, 300 mM NaCl, 0.005% Surfactant P20) was used as the running buffer to carry out the kinetic measurements. All the one step purified antibody samples were diluted in running buffer described above at a suitable concentration in series of concentrations from 10 nM to 0.09 nM. These samples were injected over the chip at a flow rate of 50 μL/min with an association time of 300 s and dissociation time of 1800s. After each sample run, the chip surface was regenerated with 10mM Glycine Buffer pH 1.5 for 18 sec at a flow rate of 100 μL/min.
KD values (Kinetic constants) were determined as the ratio of dissociation rate (kd) to association rate (ka), i.e. KD =kd/ka using ProteOn manager software v3.1.0.6.

T1 sequence (Q15116 25-167 limits assumed): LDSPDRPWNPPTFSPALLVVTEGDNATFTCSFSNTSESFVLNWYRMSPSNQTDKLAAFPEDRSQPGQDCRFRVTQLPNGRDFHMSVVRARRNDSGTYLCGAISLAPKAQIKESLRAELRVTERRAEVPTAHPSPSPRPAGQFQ

B1: IP-H4L1 (IgG4) (antibody)
heavy: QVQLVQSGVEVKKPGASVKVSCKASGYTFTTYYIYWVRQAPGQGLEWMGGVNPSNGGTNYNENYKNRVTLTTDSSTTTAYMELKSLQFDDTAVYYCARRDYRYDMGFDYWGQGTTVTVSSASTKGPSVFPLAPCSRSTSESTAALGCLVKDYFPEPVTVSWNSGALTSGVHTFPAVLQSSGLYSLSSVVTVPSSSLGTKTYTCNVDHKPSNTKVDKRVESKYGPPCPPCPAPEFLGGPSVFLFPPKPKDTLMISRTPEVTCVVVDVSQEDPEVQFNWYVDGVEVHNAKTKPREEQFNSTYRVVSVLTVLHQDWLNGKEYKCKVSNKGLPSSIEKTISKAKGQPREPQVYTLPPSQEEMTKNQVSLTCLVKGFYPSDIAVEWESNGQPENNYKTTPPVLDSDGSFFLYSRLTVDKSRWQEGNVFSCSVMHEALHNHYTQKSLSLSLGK
light: EIVLTQSPATLSLSPGERATLSCRASKGVSTSGYSYLHWYQQKPGQAPRLLIYLASYLESGVPARFSGSGSGTDFTLTISSLEPEDFAVYYCQHSRDLPLTFGGGTKVEIKRTVAAPSVFIFPPSDEQLKSGTASVVCLLNNFYPREAKVQWKVDNALQSGNSQESVTEQDSKDSTYSLSSTLTLSKADYEKHKVYACEVTHQGLSSPVTKSFNRGEC
Kd: 28.6 pM | koff: 5.36e-05 s⁻¹ | kon: 1.87e+06 M⁻¹ s⁻¹

B6: N7NL (antibody, human IgG4 S228P, kappa, V domains shown)
VH: QVQLVESGGGVVQPGRSLRLDCKASGITFSNSGMHWVRQAPGKGLEWVAVIWYDGSKRYYADSVKGRFTISRDNSKNTLFLQMNSLRAEDTAVYYCATNSDYWGQGTLVTVSS
VL: EIVLTQSPATLSLSPGERATLSCRASQSVSSYLAWYQQKPGQAPRLLIYDASNRATGIPARFSGSGSGTDFTLTISSLEPEDFAVYYCQQSSNWPRTFGQGTKVEIKR
notes: Full-length IgG4 from the pZRCIII hyg.IgG4 vector
Kd: 49.1 pM | koff: 9.54e-05 s⁻¹ | kon: 1.95e+06 M⁻¹ s⁻¹

B7: N5NL (antibody, human IgG4 S228P, kappa, V domains shown)
VH: QVQLVESGGGVVQPGRSLRLDCKASGITFSNSGMHWVRQAPGKGLEWVAVIWYDGSKRYYADSVKGRFTISRDNSKNTLFLQMNSLRAEDTAVYYCATNSDFWGQGTLVTVSS
VL: EIVLTQSPATLSLSPGERATLSCRASQSVSSYLAWYQQKPGQAPRLLIYDASNRATGIPARFSGSGSGTDFTLTISSLEPEDFAVYYCQQSSNWPRTFGQGTKVEIKR
notes: Full-length IgG4 from the pZRCIII hyg.IgG4 vector. 'NSNL' in the text is an OCR form of N5NL; also called NSNL
Kd: 75 pM | koff: 0.000151 s⁻¹ | kon: 2.03e+06 M⁻¹ s⁻¹

Now from value to binder:

Kd: 8.2 pM | koff: 1.37e-05 s⁻¹ | kon: 1.67e+06 M⁻¹ s⁻¹
B2: IP-H4.2L1 (antibody, human IgG4 S228P, kappa, V domains shown)
VH: QVQLVQSGVEVKKPGASVKVSCKASGYTFTTYYIYWVRQAPGQGLEWMGGVNPSNGGTNYNENYKNRVTLTTDSSTTTAYMELKSLQFDDTAVYYCARRDYRYDMGYDYWGQGTTVTVSS
VL: EIVLTQSPATLSLSPGERATLSCRASKGVSTSGYSYLHWYQQKPGQAPRLLIYLASYLESGVPARFSGSGSGTDFTLTISSLEPEDFAVYYCQHSRDLPLTFGGGTKVEIKR

Kd: 40.9 pM | koff: 6.28e-05 s⁻¹ | kon: 1.54e+06 M⁻¹ s⁻¹
B3: IP-H4.19L1 (antibody, human IgG4 S228P, kappa, V domains shown)
VH: QVQLVQSGVEVKKPGASVKVSCKASGYTFTTYYIYWVRQAPGQGLEWMGGVNPSNSGTNYNENYKNRVTLTTDSSTTTAYMELKSLQFDDTAVYYCARRDYRYDMGFDYWGQGTTVTVSS
VL: EIVLTQSPATLSLSPGERATLSCRASKGVSTSGYSYLHWYQQKPGQAPRLLIYLASYLESGVPARFSGSGSGTDFTLTISSLEPEDFAVYYCQHSRDLPLTFGGGTKVEIKR

Kd: 31.7 pM | koff: 6.2e-05 s⁻¹ | kon: 1.96e+06 M⁻¹ s⁻¹
B4: IP-H4.36L1 (antibody, human IgG4 S228P, kappa, V domains shown)
VH: QVQLVQSGVEVKKPGASVKVSCKASGYTFTTYYIYWVRQAPGQGLEWMGGVNPSNGGTNYNQNYKNRVTLTTDSSTTTAYMELKSLQFDDTAVYYCARRDYRYDMGFDYWGQGTTVTVSS
VL: EIVLTQSPATLSLSPGERATLSCRASKGVSTSGYSYLHWYQQKPGQAPRLLIYLASYLESGVPARFSGSGSGTDFTLTISSLEPEDFAVYYCQHSRDLPLTFGGGTKVEIKR

Kd: 24.8 pM | koff: 5.21e-05 s⁻¹ | kon: 2.12e+06 M⁻¹ s⁻¹
B5: IP-H4L1 (IgG1) (antibody)
heavy: not shown
light: EIVLTQSPATLSLSPGERATLSCRASKGVSTSGYSYLHWYQQKPGQAPRLLIYLASYLESGVPARFSGSGSGTDFTLTISSLEPEDFAVYYCQHSRDLPLTFGGGTKVEIKRTVAAPSVFIFPPSDEQLKSGTASVVCLLNNFYPREAKVQWKVDNALQSGNSQESVTEQDSKDSTYSLSSTLTLSKADYEKHKVYACEVTHQGLSSPVTKSFNRGEC

Kd: 82.6 pM | koff: 0.000154 s⁻¹ | kon: 1.86e+06 M⁻¹ s⁻¹
B8: N6NL (antibody, human IgG4 S228P, kappa, V domains shown)
VH: QVQLVESGGGVVQPGRSLRLDCKASGITFSNSGMHWVRQAPGKGLEWVAVIWYDGSKRYYADSVKGRFTISRDNSKNTLFLQMNSLRAEDTAVYYCATNSDHWGQGTLVTVSS
VL: EIVLTQSPATLSLSPGERATLSCRASQSVSSYLAWYQQKPGQAPRLLIYDASNRATGIPARFSGSGSGTDFTLTISSLEPEDFAVYYCQQSSNWPRTFGQGTKVEIKR
notes: as for B6
